# Reference: US20070003546A1
# Target: extracellular region of human V158 FcγRIIIa fused with glutathione S-Transferase (GST) (human) (UniProt P08637)
# Experiment: AlphaScreen competition
# Sequence of extracellular region of human V158 FcγRIIIa fused with glutathione S-Transferase (GST) (human) (P08637 17-208 F176V): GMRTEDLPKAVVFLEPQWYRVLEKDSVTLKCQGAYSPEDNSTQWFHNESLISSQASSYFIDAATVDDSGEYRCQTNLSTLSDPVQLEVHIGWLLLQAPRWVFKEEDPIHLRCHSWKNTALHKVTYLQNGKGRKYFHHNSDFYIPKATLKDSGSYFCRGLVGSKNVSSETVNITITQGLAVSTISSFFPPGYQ
row,Substance,FcγRIIIa Fold [fold]
1,trastuzumab S239D/A330Y/I332E/V240I (antibody),28
2,trastuzumab S239D/A330Y/I332E/V264T (antibody),17.7
3,trastuzumab S239D/I332E/A330I (antibody),59.1
4,trastuzumab L234I/L235D (antibody),0.07
5,trastuzumab K326I (antibody),1.43
6,trastuzumab T335D (antibody),2.79
7,trastuzumab V302I (antibody),1.01
8,trastuzumab K326T (antibody),1.88
9,trastuzumab E233D (antibody),0.85
10,trastuzumab E333T (antibody),0.78
11,trastuzumab Y278W (antibody),0.41
12,trastuzumab S239D/A330Y/I332E/L234I (antibody),22.4
13,trastuzumab F275W (antibody),1.11
14,trastuzumab E272Y (antibody),8.7
15,trastuzumab K274T (antibody),1.41
16,trastuzumab N276E (antibody),0.87
17,trastuzumab T335Y (antibody),1.56
18,trastuzumab S239D/A330Y/I332E/L235D (antibody),7.04
19,trastuzumab V273I (antibody),0.79
20,trastuzumab E333H (antibody),0.75
21,trastuzumab K274R (antibody),1.41

row,Substance,FcγRIIIa Fold [fold]
1,trastuzumab K274E (antibody),6.11
2,trastuzumab N276S (antibody),0.41
3,trastuzumab T335R (antibody),2.58
4,trastuzumab N276Y (antibody),0.56
5,trastuzumab V323I (antibody),0.83
6,trastuzumab P230A/E233D (antibody),0.92
7,trastuzumab N276R (antibody),0.66
8,trastuzumab S324Y (antibody),0.98
9,trastuzumab E318R (antibody),1.06
10,trastuzumab S324R (antibody),0.71
11,trastuzumab V240I/V266I (antibody),1.72
12,trastuzumab E283R (antibody),0.67
13,trastuzumab P230A/E233D/I332E (antibody),1.87
14,trastuzumab S239D/A330Y/I332E/K326E (antibody),64.1
15,alemtuzumab A298H (antibody),0.27
16,trastuzumab P230A (antibody),1.09
17,trastuzumab S324V (antibody),1.17
18,trastuzumab Y278E (antibody),0.9
19,trastuzumab Y278T (antibody),1.87
20,trastuzumab K274L (antibody),1.09
21,trastuzumab K274Y (antibody),1.06

# Target: His-tagged V158 FcγRIIIa (human) (UniProt P08637)
# Sequence (P08637 17-208 F176V limits assumed): as the sequence (P08637 17-208 F176V) above
# Experiment: SPR, receptor immobilized
row,Substance,Kd [nM]
1,WT alemtuzumab (antibody),68
2,alemtuzumab S298A/E333A/K334A (antibody),39
3,alemtuzumab V264I/I332E (antibody),17
4,alemtuzumab V264I (antibody),64
5,alemtuzumab I332E (antibody),31
6,alemtuzumab S298A (antibody),52

# Target: FcγRIIIa on human PBMCs expressing heterozygous V158/F158 FcγRIIIa (human) (UniProt P08637)
# Experiment: cell-based or functional assay
row,Substance,"ADCC EC50 (DELFIA EuTDA, DoHH-2 target cells) [ng/mL]"
1,alemtuzumab S239D/I332E (antibody),3
2,alemtuzumab V264I/I332E (antibody),4
